The assay has as its target T1, kappa-opioid receptor (KOR-EGFP) (Mus musculus, UniProt P33534).
T1 chain: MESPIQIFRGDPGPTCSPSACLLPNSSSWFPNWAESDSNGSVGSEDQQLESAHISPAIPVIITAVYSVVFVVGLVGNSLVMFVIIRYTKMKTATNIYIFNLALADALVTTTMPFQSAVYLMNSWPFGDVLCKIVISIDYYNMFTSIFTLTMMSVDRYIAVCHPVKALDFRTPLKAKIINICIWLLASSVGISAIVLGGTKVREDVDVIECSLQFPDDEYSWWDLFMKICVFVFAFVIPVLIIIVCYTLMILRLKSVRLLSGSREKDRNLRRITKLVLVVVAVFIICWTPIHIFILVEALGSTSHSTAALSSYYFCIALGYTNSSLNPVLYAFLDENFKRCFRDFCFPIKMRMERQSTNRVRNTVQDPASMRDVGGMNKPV
In words: radioligand displacement ([3H]-diprenorphine).

B1: dynorphin A1-13 1-13 (peptide)
chain: MAWQGLVLAACLL
In general, Ki refers to the dissociation constant of the complex between target and ligand, obtained from inhibition or displacement. A low value points to higher affinity. In the case of B1, the Ki amounted to 0.3 nM.

Values taken from article PMC8406418 (2021).
